Consider one molecule from patent EP4653467A1 (Wuhan Zhaozhi Biotechnology Co., Ltd., dated 2025).

In this experiment the target is T1, CD22 on RAJI cells (UniProt P20273 20-847, limits assumed).
T1 sequence (looked up): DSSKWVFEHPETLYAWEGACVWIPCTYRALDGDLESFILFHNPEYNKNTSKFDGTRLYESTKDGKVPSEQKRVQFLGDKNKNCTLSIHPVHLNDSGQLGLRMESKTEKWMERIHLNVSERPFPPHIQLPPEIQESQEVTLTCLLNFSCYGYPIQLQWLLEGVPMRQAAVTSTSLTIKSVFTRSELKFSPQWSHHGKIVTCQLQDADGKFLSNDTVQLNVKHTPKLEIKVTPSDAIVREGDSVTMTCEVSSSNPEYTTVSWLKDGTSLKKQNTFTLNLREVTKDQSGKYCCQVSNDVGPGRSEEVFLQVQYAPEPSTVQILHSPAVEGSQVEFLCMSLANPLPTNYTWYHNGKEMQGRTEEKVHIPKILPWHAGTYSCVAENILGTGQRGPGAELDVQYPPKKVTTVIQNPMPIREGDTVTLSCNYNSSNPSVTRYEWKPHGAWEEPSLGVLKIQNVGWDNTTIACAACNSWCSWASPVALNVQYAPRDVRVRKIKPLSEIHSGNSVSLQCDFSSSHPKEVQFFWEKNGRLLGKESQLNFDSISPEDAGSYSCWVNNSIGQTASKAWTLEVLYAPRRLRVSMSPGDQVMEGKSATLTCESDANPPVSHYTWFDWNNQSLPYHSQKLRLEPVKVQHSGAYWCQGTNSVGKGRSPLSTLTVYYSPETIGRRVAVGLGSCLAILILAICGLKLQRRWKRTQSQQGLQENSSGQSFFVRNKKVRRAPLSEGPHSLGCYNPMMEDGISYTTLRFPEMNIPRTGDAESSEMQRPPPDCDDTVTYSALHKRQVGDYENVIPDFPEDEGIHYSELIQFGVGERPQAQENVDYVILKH
The experiment can be described thus: cell-based or functional assay.

B1: CAR22 (CAR molecule targeting CD22) (other)
chain: MALPVTALLLPLALLLHAAIPDTEVQLVESGGGLVKPGGSLKLSCAASGFAFSIYDMSWVRQTPEKRLEWVAYISSGGGTYYPDTVKGRFTISRDNAKNTLYLQMSSLKSEDTAMYYCARHSGYGTHWGVLFAYWGQGTLVTVSAGGGGSGGGGSGGGGSDIQMTQTTSSLSASLGDRVTISCRASQDISNYLNWYQQKPDGTVKLLIYYTSILHSGVPSRFSGSGSGTDYSLTISNLEQEDFATYFCQQGNTLPWTFGGGTKLEIKATTTPAPRPPTPAPTIASQPLSLRPEACRPAAGGAVHTRGLDFACDFWVLVVVGGVLACYSLLVTVAFIIFWVRSKRSRLLHSDYMNMTPRRPGPTRKHYQPYAPPRDFAAYRSKRGRKKLLYIFKQPFMRPVQTTQEEDGCSCRFPEEEEGGCELRVKFSRSADAPAYQQGQNQLYNELNLGRREEYDVLDKRRGRDPEMGGKPRRKNPQEGLYNELQKDKMAEAYSEIGMKGERRRGKGHDGLYQGLSTATKDTYDALHMQALPPR
In the case of B1, the “target cell lysis (calcein release), CAR-T cells on RAJI positive target cells, effector-to-target ratio 2:1” value is 11.5%; the “target cell lysis (calcein release), CAR-T cells on RAJI positive target cells, effector-to-target ratio 10:1” value was 46.9%; the “target cell lysis (calcein release), CAR-T cells on RAJI positive target cells, effector-to-target ratio 50:1” value was 94.4%.
